The text below walks through data of paper PMC7326950, “Hypoxanthine-Guanine Phosphoribosyltransferase/adenylate Kinase From Zobellia galactanivorans: A Bifunctional Catalyst for the Synthesis of Nucleoside-5′-Mono-, Di- and Triphosphates” (Frontiers in Bioengineering and Biotechnology, 2020).

One series deals with T1, ZgHGPRT/AMPK (Zobellia galactanivorans, UniProt G0LC40).
T1 construct: gene adkA; homodimer
Kind of series: steady-state kinetics, HPLC of IMP formation, non-linear regression. In kind it is biochemical. The following applies: HGPRT domain; apparent substrate inhibition at high Hyp; PRPP fixed at 5 mM; varied Hyp 0.5–17.2 mM; Mg2+. The source says: (§1) steady-state kinetics, HPLC of IMP formation, non-linear regression on ZgHGPRT/AMPK

Substrate in the series “purified protein”: Nc1ncnc2c1ncn2[C@@H]1O[C@H](COP(=O)(O)O)[C@@H](O)[C@H]1O
Kind of series: purified protein. The conditions noted are these: AMPK domain; apparent; ATP fixed at 3.2 mM; varied AMP 0.5–10 mM; Mg2+.

Substrate in series [1]: Nc1ncnc2c1ncn2[C@@H]1O[C@H](COP(=O)(O)OP(=O)(O)OP(=O)(O)O)[C@@H](O)[C@H]1O
In words: steady-state kinetics, HPLC of ADP formation, non-linear regression. The series is classed as biochemical, Zobellia galactanivorans. The conditions noted are these: AMPK domain; apparent; AMP fixed at 3.2 mM; varied ATP 0.5–10 mM; Mg2+. An excerpt:
steady-state kinetics, HPLC of ADP formation, non-linear regression on ZgHGPRT/AMPK

Substrate in series [2]: O=P(O)(O)OC[C@H]1O[C@H](OP(=O)(O)OP(=O)(O)O)[C@H](O)[C@@H]1O
Kind of series: steady-state kinetics, HPLC of IMP formation, non-linear regression. The series is classed as biochemical, Zobellia galactanivorans. The conditions noted are these: HGPRT domain; apparent; Hyp fixed at 5 mM; varied PRPP 0.5–17.2 mM; Mg2+.
Source text: as §1

Substrate in series [3]: O=c1[nH]cnc2nc[nH]c12
Described as above. The series is classed as biochemical, Zobellia galactanivorans. The conditions noted are these: HGPRT domain; apparent; PRPP fixed at 5 mM; varied Hyp 0.5–17.2 mM; Mg2+.
Source text: as §1

Series [4] concerns the molecule itself. Kind of series: AUC; sedimentation velocity, 20 mM Tris-HCl pH 8, 20°C, 50,000 x g, profiles at 292 nm, c(s) by SEDFIT; protein 0.4 mg/ml.

As to `O=c1[nH]cnc2nc[nH]c12` [compound 1, hypoxanthine], the “Value with variable substrate / Hyp^a” value on ZgHGPRT/AMPK is reported as 11.12 ± 1.02 mM.

B1: hypoxanthine-guanine phosphoribosyltransferase (HGPRT)/adenylate kinase (AMPK) from Zobellia galactanivorans (enzyme, UniProt G0LC40 1-368, looked up)
chain: MIKLHDKHFKPFLSEAQIKAAVKKVAEQVAADYKDETPIFVGVLNGAFMFISDFLKEYQYPCEVSFVKLSSYQGLTSTGIVETLLDVSENIEGRSVIILEDIIDTGRTLKKLVHLFSKANVKEFRVASLFYKSEVYNGEYTIDYVGIDIPDKFIVGYGLDYNELGRNLREVYQLNQKHMINLVLFGKPGAGKGTQAEFLKDKYNLKHISTGDLFRFNMKNDTELGKLAKSYIDRGDLVPDEVTIKMLQDAVEKNPEASGFIFDGFPRTVAQAEALDKFLATKDMKIDATIALEANDEVLIQRLLERGKVSGRSDDQDESKIRNRFDEYNEKTAPLKDFYENQGKFHSVNGIGAIDEITHRLGKVIEEL
notes: gene from GenScript cloned NheI-BamHI into pET28b(+); The vector encodes a thrombin cleavage site between the His6 tag and the enzyme; no cleavage is described, and the measured mass is compared with that of the His6-tagged protein (43.77 kDa); also called ZgHGPRT/AMPK; HGPRT/AMPK; source: E. coli BL21(DE3), purified (HisTrap FF, Superdex 200); not shown: His6, N-terminal, kept
On to B1, for which the Km in the series “purified protein” was found to be 8.02 ± 0.40 mM; in series [1] it was 0.77 ± 0.04 mM; in series [2], 6.77 ± 0.41 mM; in series [3], 1.01 ± 0.05 mM. Further, the kcat in the series “purified protein” is 0.16 s⁻¹; in series [1], 0.07 ± 0.003 s⁻¹; in series [2] it was 2.82 ± 0.21 s⁻¹; in series [3], 1.11 ± 0.06 s⁻¹. The kcat/Km in “purified protein” turned out to be 20 M⁻¹ s⁻¹; in series [1], 100 M⁻¹ s⁻¹; in series [2] it was 420 M⁻¹ s⁻¹; in series [3], 1100 M⁻¹ s⁻¹. Further, the “stoichiometry N” value in series [4] was determined as 2.

A word on the Km: it is the concentration of substrate that gives half-maximal velocity. The term kcat denotes the number of substrate molecules converted per active site and unit of time at saturation. A word on the kcat/Km: it is the turnover number divided by the Michaelis constant. As usually defined, the stoichiometry N is the number of molecules, sites or subunits per partner or assembly.
